Residue numbers refer to the chain shown, from its start.

Series [1] concerns the target T1, UGT88C14 (KN9204 allele of TraesCS2B01G012000) (Triticum aestivum, UniProt Z9F0T2E170).
T1 construct: full-length natural allele from KN9204, StrepII-tagged, expressed in and purified from N. benthamiana
T1 sequence (Z9F0T2E170 1-489): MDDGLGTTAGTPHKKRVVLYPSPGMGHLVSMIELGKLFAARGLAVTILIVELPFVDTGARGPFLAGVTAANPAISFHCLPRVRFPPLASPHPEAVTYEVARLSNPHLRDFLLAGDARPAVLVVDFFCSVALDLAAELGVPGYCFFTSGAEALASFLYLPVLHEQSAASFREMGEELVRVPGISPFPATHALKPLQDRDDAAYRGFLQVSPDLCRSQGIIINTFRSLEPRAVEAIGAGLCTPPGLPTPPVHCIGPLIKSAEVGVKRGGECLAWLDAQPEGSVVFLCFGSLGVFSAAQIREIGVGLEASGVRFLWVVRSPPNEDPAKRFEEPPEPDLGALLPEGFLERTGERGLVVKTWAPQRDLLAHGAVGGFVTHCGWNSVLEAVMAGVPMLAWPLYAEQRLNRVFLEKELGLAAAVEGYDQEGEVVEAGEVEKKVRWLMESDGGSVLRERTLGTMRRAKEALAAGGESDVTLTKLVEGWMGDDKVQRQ
The experiment in a line: LC-MS glucosyltransferase assay. The settings on record: UDP-glucose as donor, Tris-HCl pH 7.5, 10 mM MgCl2, 37 °C; mainly 7-O-glucosylation. The format is biochemical.

In series [2] the target is T2, UGT88C13 (TraesCS2B01G012000) (Triticum aestivum, UniProt A0A3B6BZ82).
T2 construct: gene LOC123043080; also cloned in pGEX-6p-1 (GST)
T2 sequence (A0A3B6BZ82 1-489): T1 sequence (Z9F0T2E170 1-489) with P90S, L363V, T455A
The experiment in a line: LC-MS glucosyltransferase assay. The format is biochemical. As to conditions: UDP-glucose as donor, Tris-HCl pH 7.5, 10 mM MgCl2, 37 °C; mainly 7-O-glucosylation.

Substrate in series [3]: O=c1cc(-c2ccc(O)c(O)c2)oc2cc(O)cc(O)c12
Briefly: LC-MS glucosyltransferase assay. The settings on record: UDP-glucose as donor, Tris-HCl pH 7.5, 10 mM MgCl2, 37 °C, mainly 7-O-glucosylation. The format is biochemical, Triticum aestivum.

Substrate in series [4]: O=c1cc(-c2ccc(O)cc2)oc2cc(O)cc(O)c12
Briefly: purified protein. As to conditions: UDP-glucose as donor, Tris-HCl pH 7.5, 10 mM MgCl2, 37 °C, mainly 7-O-glucosylation.

Substrate in series [5]: O=c1c(O)c(-c2ccc(O)cc2)oc2cc(O)cc(O)c12
The experiment in a line: purified protein. As to conditions: UDP-glucose as donor, Tris-HCl pH 7.5, 10 mM MgCl2, 37 °C, mainly 7-O-glucosylation.

As to `O=c1cc(-c2ccc(O)cc2)oc2cc(O)cc(O)c12` [apigenin], the Km in series [1] was determined as 21.8 ± 9.15 µM.
For the molecule `O=c1c(O)c(-c2ccc(O)c(O)c2)oc2cc(O)cc(O)c12` [quercetin], the Km in series [2] was > 1000 µM.

B1: UGT88C13 (TraesCS2B01G012000) (Triticum aestivum) (protein)
chain: T1 sequence (Z9F0T2E170 1-489) with P90S, L363V, T455A
notes: also cloned in pGEX-6p-1 (GST)
On to B1, for which the Km in series [3] amounted to 22.13 ± 6.54 µM; in the series “purified protein [4]”, 19.47 ± 6.76 µM; in the series “purified protein [5]”, 20.33 ± 5.75 µM.

These data come from paper PMC7383920, “Metabolomics analysis and metabolite‐agronomic trait associations using kernels of wheat (Triticum aestivum) recombinant inbred lines” (The Plant Journal, 2020).
